From publication PMC6262856

Each substance was assayed against biotin-15d-PGJ2 (assay: biotin pull-down (avidin) with western-blot quantification (ImageJ)). Conditions: 293T cells transfected with FLAG-eIF4A1s.

Q: With FLAG-eIF4A1 (from UniProt P60842) C264S as the substance, how does the ratio to parent read?
A: 0.17

Q: With “FLAG-eIF4A1 (from UniProt P60842) C264S; R295A” as the substance, how does the ratio to parent read?
A: 0.03

Q: How did the ratio to parent turn out when FLAG-eIF4A1 (from UniProt P60842) R295A was run?
A: 2.35
